Laboratory results published in the PETadex activity labels (doi:10.1021/acsomega.4c04843).

Tests used:
[1] = substrate: pNPB; experiment: Proxy for plastic degradation [p-nitrophenol (pNP) release]; details: pH 7.4
[2] = substrate: PET; experiment: Proxy for plastic degradation [Released monomer concentration (HPLC/LC-MS) (TPA)]; details: pH 8

Protein | Proxy for plastic degradation ([1]; 37 °C) [U/mL] | Proxy for plastic degradation ([1]; 42 °C) [U/mL] | Proxy for plastic degradation [2] [mM/mg]
unnamed (protein) MMGYITAHDGTNLYVEDVGFGEPIVFLHGWPANNNMFEYQKNALVEAGYRYIGIDFRGYGKSDAPATGYDYETMASDVHMVVYGLGLKNFTLVGFSMGGAIAVRYAADYKEDGLNKLVLAGAAAPIFTQRADYPYGMTTDEVDALIDDTRADRPKMLEGFGEIFFEKEHSKPMQNWFHHLALVASSHGTIASAQALRDEDLRDALPKIDVETLIIHGVHDKICPFAFAEQMEQGISNARIERFEESGHGTVLDEREKFNDTLLQFVQ | 245 | 300 | 3.7
unnamed (protein) MSNPYQRGPNPTRSALTADGPFSVATYTVSRLSVSGFGGGVIYYPTGTSLTFGGIAMSPGYTADASSLAWLGRRLASHGFVVLVINTNSRFDGPDSRASQLSAALNYLRTSSPSAVRARLDANRLAVAGHSMGGGGTLRIAEQNPSLKAAVPLTPWHTDKTFNTSVPVLIVGAEADTVAPVSQHAIPFYQNLPSTTPKVYVELCNASHIAPNSNNAAISVYTISWMKLWVDNDTRYRQFLCNVNDPALCDFRTNNRHCQLEHHHHHH |  |  | 3
unnamed (protein) MFRFHIVSALLTLFIAVPSQAHDVGQREIKISGAEPGRNLEVSVWYPAAIDGKATLIGDNIIFKGAPAVIDATPEKGSFPLLVMSHGSGGRAQGMAWLATELVKAGIIVAAPNHPGTTSGDSTPQDTPKIWQRTGDLSAVIDTMTTDPAWSGIIDKNKISVLGFSLGGAAAMEIAGARANLEAYARYCDTYGKWDCAWYAGGIGYRDDKQIKVDKVDLRSVDKSRFEQSNLDRRIASAIMIDPGLAQAYDAQSLASISIPMSFINLGEVETIPTGVVADKLASITPQGTYVTVAGATHFSFLPECKKGAADRLKSAGEVDPICSDDARRPRADIHADITKLVLKALQSMPKT | 255 | 330 | 0.8
unnamed (protein) MFRFHIVSALLTLFIAVPSQAHDVGQREIKISGAEPGRNLEVSVWYPAAIDGKATLIGDNIIFKGAPAVIDATPEKGSFPLLVMSHGSGGRAQGMAWLATELVKAGIIVAAPNHPGTTSGDSTPQDTPKIWQRTGDLSAVIDTMTTDPAWSGIIDKNKISVLGFSMGGAAAMEIAGARANLEAYARYCDTYGKWDCAWYAGGIGYRDDKQIKVDKVDLRSVDKSRFEQSNLDRRIASAIMIDPGLAQAYDAQSLASISIPMSFINLGEVETIPTGVVADKLASITPQGTYVTVAGATHWSFLPECKKGAADRLKSAGEVDPICSDDARRPRADIHADITKLVLKALQSMPKT |  |  | 2.3
unnamed (protein) MFRFHIVSALLTLFIAVPSQAHDVGQREIKISGAEPGRNLEVSVWYPAAIDGKATLIGDNIIFKGAPAVIDATPEKGSFPLLVMSHGSGGRAQGMAWLATELVKAGIIVAAPNHPGTTSGDSTPQDTPKIWQRTGDLSAVIDTMTTDPAWSGIIDKNKISVLGFSMGGAAAMEIAGARANLEAYARYCDTYGKWDCAWYAGGIGYRDDKQIKVDKVDLRSVDKSRFEQSNLDRRIASAIMIDPGLAQAYDAQSLASISIPMSFINLGEVETIPTGVVADKLASITPQGTYVTVDGATHFSFLPECKKGAADRLKSAGEVDPICSDDARRPRADIHADITKLVLKALQSMPKT |  |  | 2.6
unnamed (protein) MFRFHIVSALLTLFIAVPSQAHDVGQREIKISGAEPGRNLEVSVWYPAAIDGKATLIGDNIIFKGAPAVIDATPEKGSFPLLVMSHGSGGRAQGMAWLATELVKAGIIVAAPNHPGTTSGDSTPQDTPKIWQRTGDLSAVIDTMTTDPAWSGIIDKNKISVLGFSMGGAAAMEIAGARANLEAYARYCDTYGKWDCAWYAGGIGYRDDKQIKVDKVDLRSVDKSRFEQSNLDRRIASAIMIDPGLAQAYDAQSLASISIPMSFINLGEVETIPTGVVADKLASITPQGTYVTVAGATHISFLPECKKGAADRLKSAGEVDPICSDDARRPRADIHADITKLVLKALQSMPKT |  |  | 1.5
